Assay results from publication PMC9204161.

Target: biotin-ahx-ahx-EPQpYEEIPIYL (biotinylated pTyr peptide derived from the protein MidT)
Assay: BLI; Octet RED96 (ForteBio); biotinylated peptides immobilised on a streptavidin biosensor; SH2 variants at 300, 150 and 0 nM

Q: Which Kd does the source give for “SH2-WT (wild-type Fyn SH2 domain), 6xHis-tagged protein (from UniProt P06241 149-246) (domain or fragment)” here?
A: The Kd was 267 nM.
